Earlier results, collected in patent publication US9084831B2, “Molecular probe precursor for imaging of pancreatic islet, and use thereof” (Kyoto University, priority 2008, dated 2015).

Conditions: mouse, in vivo, iv; cited from earlier work

## ^125I labeled exendin(9-39): exendin(9-39), a GLP-1R ligand, 125I-labeled by Bolton-Hunter labeling (PerkinElmer NEX 335)
  accumulation and binding among organs: accumulates selectively and specifically in the pancreas among organs
